Paper PMC4490410

How the values were obtained:
Settings in all cases: remark: other sources report otherwise
[1] = molecular target: T1, DJ-1 (endogenous, human) (human (endogenous in human brain, M17D cells, iPSC-derived neurons)), Q99497; assay: cross-linking; intact M17D cells transiently transfected with untagged αS variants; 1 mM DSG or 1.75 mM DSP, 30 min 37 °C; cytosol (PBS) or PBS/1% TX-100 lysate, western blot (Syn1) densitometry; values of the fPD mutants from a meta-analysis of DSG and DSP experiments
T1 chain: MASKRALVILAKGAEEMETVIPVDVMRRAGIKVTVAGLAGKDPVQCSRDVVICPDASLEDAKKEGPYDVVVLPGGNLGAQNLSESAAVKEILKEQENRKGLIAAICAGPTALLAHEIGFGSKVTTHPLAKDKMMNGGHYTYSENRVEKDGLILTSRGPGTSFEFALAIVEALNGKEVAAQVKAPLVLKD

[2] = molecular target: T1, DJ-1 (endogenous, human) (human …); assay: cross-linking; intact neurons differentiated from A53T patient iPSCs or the corrected isogenic line; DSG; sequential extraction, cytosol blotted with 2F12, C20, Syn1
[3] = molecular target: T1, DJ-1 (endogenous, human) (human …); assay: cross-linking; intact-cell crosslinking of minced, washed fresh human cortical biopsy; 1 mM DSG at increasing volume-to-protein ratio (DSP reduced by βME for total αS), 37 °C 30 min; then PBS ('cytosol') and TX-100 ('membrane') fractions, western blot

stoichiometry N [1]: 2 | stoichiometry N [2]: 2 | stoichiometry N [3]: 2
B1: DJ-1 (endogenous, human), Q99497 1-189 (natural protein)
chain: MASKRALVILAKGAEEMETVIPVDVMRRAGIKVTVAGLAGKDPVQCSRDVVICPDASLEDAKKEGPYDVVVLPGGNLGAQNLSESAAVKEILKEQENRKGLIAAICAGPTALLAHEIGFGSKVTTHPLAKDKMMNGGHYTYSENRVEKDGLILTSRGPGTSFEFALAIVEALNGKEVAAQVKAPLVLKD
